# Results published in the supplement of paper PMC10724198.
# ± gives the standard deviation of the averaged measurements.
# Test system: Saccharomyces cerevisiae
# Experiment: protein stability index of tFT-peptide fusion (C-terminal peptide) (PSI (0-1 scale)); higher = more stable (slower turnover)
# Conditions: genetic background: wild type; temperature: 30 C
# Experimental: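 Multiplexed protein stability (MPS) profiling in S. cerevisiae. Random 12-aa peptides (tFT-X12 library) are fused to the C-terminus of a sfGFP-mCherry tandem fluorescent timer, after mCherry and a GGGS linker. Cells are FACS-sorted into 8 mCherry/sfGFP bins and deep-sequenced. The protein stability index (PSI) is the read-weighted bin average, scaled from 0 (unstable) to 1 (stable). Only peptides with >10 reads are reported; cells were grown at 30 °C in SC-His with glucose.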
# 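Note: PSI is a weighted mean of sequencing reads over stability bins, variants kept only with over 10 reads, mCherry proximal and sfGFP distal, peptide attached via GGGS linker.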
row,Sequence,protein stability index
1,CSFSRRLCHRPT,0.701 ± 0.013
2,CSHSLFASCSSL,0.695 ± 0.021
3,CSIVGLGACVSW,0.669 ± 0.0083
4,CSLCILSWTFPS,0.6464 ± 0.0026
5,CSLSRFLGCWGF,0.668 ± 0.062
6,CSMSGPLIIIAR,0.58339 ± 0.00021
7,CSPSDCGWQLVL,0.604 ± 0.09
8,CSRFPGSVRVVS,0.615 ± 0.012
9,CSRSPASAPRPH,0.688 ± 0.018
10,CSSLPPFPALPR,0.701 ± 0.026
11,CSSTTFADRRFM,0.753 ± 0.062
12,CTAPIASWKRVL,0.694 ± 0.029
13,CTCLHSSGVRHT,0.692 ± 0.047
14,CTSSVRARRRFR,0.698 ± 0.043
15,CVFSCLLATVFL,0.533 ± 0.026
16,CVGARLYMVRDR,0.724 ± 0.046
17,CVGFCLGKCTMS,0.732 ± 0.014
18,CVIESIEQCLSR,0.716 ± 0.045
19,CVLAPPHRRAPS,0.699 ± 0.031
20,CVLLGSTIPAIV,0.645 ± 0.043
21,CWVRGLEYCSIW,0.676 ± 0.028
22,CYGAYLVSQWGS,0.697 ± 0.028
23,DACWWVDDGGVV,0.719 ± 0.051
24,DAGLCGCCGVIG,0.666 ± 0.057
25,DALGRSTKGGHW,0.689 ± 0.024

row,Sequence,protein stability index
1,DARGTVVEIRPG,0.72 ± 0.19
2,DAVRRSSLSLAT,0.711 ± 0.16
3,DCFSFVASSSFC,0.7696 ± 0.004
4,DCIAFVPRDRRS,0.614 ± 0.012
5,DCREALLAKVYL,0.627 ± 0.07
6,DCRLPSLPPCVA,0.648 ± 0.059
7,DCYSKLQSRKCG,0.682 ± 0.018
8,DDTSIVRRMQSP,0.674 ± 0.014
9,DEVRDTSGGTWA,0.642 ± 0.02
10,DFMGLRCSARKA,0.693 ± 0.016
11,DFPLISAHNTVC,0.655 ± 0.033
12,DFVESKVCSCSV,0.666 ± 0.01
13,DFVSQFSFQFGC,0.713 ± 0.066
14,DGGKRKQDSQKK,0.683 ± 0.034
15,DGKGLRATWQWS,0.737 ± 0.037
16,DGLGSSGCCLCW,0.693 ± 0.038
17,DGPGFNVCLRCK,0.708 ± 0.017
18,DGPRPPRPSPVP,0.699 ± 0.04
19,DGPWGGVRAGEV,0.717 ± 0.063
20,DGRLNVCCYPSC,0.689 ± 0.15
21,DGSSESRSGTGK,0.69 ± 0.057
22,DGTLTAKVIETF,0.66 ± 0.058
23,DGTSKDSKWYMN,0.747 ± 0.088
24,DGVGRLADGRGI,0.688 ± 0.013
25,DGVGVPGCGRVG,0.734 ± 0.075

row,Sequence,protein stability index
1,DGVWVRCGTLGF,0.715 ± 0.078
2,DHCRTQHLGLEM,0.725 ± 0.015
3,DHGVRASSRATG,0.692 ± 0.015
4,DHHGGTEPHRVP,0.7079 ± 0.0052
5,DICCGLCGLLPR,0.658 ± 0.079
6,DIGGLGYCDCVK,0.758 ± 0.054
7,DIGGTDYDPAIS,0.7138 ± 0.0017
8,DIHLSRQKTRIL,0.752 ± 0.17
9,DIKKSTKGQNQQ,0.602 ± 0.025
10,DILCRILLRPKG,0.63 ± 0.031
11,DIRFSAARRPTG,0.6627 ± 0.0053
12,DIRKAEISANFC,0.59434 ± 2.4e-05
13,DITQSRIHMTNI,0.661 ± 0.055
14,DKKEEEKKSTKH,0.70302 ± 0.00026
15,DKNDGNHKKKKN,0.702 ± 0.017
16,DKPVDTRPGSPG,0.66 ± 0.031
17,DKSHRKNKKKRN,0.699 ± 0.0074
18,DKYKIDKKSKRK,0.683 ± 0.059
19,DLATSVVYIVTV,0.506 ± 0.0077
20,DLDVVGEGSAGT,0.683 ± 0.046
21,DLFLTSSCPCLC,0.55106 ± 4.5e-05
22,DLGLEVVSFLKF,0.741 ± 0.068
23,DLPDGRRFIVIG,0.682 ± 0.08
24,DLPDLQPACPRF,0.722 ± 0.019
25,DLPSSPCSYFRR,0.616 ± 0.034

row,Sequence,protein stability index
1,DLRVSLLSHLSL,0.679 ± 0.11
2,DLSAGKWSRSSD,0.689 ± 0.023
3,DLSAGPPFLLIR,0.6717 ± 0.0038
4,DLTGKGCIYMER,0.702 ± 0.034
5,DLVGSWMCGPDL,0.691 ± 0.028
6,DLVRGGNCVYGV,0.66 ± 0.032
7,DMAVYLVSVSRV,0.609 ± 0.053
8,DMCLSVIEQTAC,0.6123 ± 0.0028
9,DMSQKSENKKLI,0.689 ± 0.011
10,DPLLYLCLGSQC,0.676 ± 0.017
11,DPLVDLCGPLSL,0.717 ± 0.077
12,DPPDPASIHLSF,0.752 ± 0.0096
13,DPRHDNRYPRVR,0.617 ± 0.16
14,DPTWIKKRPSIP,0.666 ± 0.044
15,DPVVSQLSSVPA,0.656 ± 0.041
16,DQAWYFVRLAGD,0.766 ± 0.2
17,DQIYEKQKIPST,0.621 ± 0.0079
18,DQLGARSGELLR,0.697 ± 0.063
19,DREGIELHKNKD,0.658 ± 0.0072
20,DREVGQGRLTEE,0.6359 ± 0.0018
21,DRGFSVGGGWGW,0.676 ± 0.066
22,DRGSLVASGGGG,0.713 ± 0.015
23,DRKWSPGSGVVD,0.696 ± 0.051
24,DRLGGVSQVNIQ,0.751 ± 0.042
25,DRPACVAHKLFS,0.677 ± 0.0073

row,Sequence,protein stability index
1,DRRARTDEKKKK,0.646 ± 0.01
2,DRSLRLGSLTSG,0.6 ± 0.017
3,DRWGGRGDYRCI,0.72 ± 0.019
4,DSAVTPPTTCLP,0.719 ± 0.028
5,DSCQALIWLVFT,0.586 ± 0.021
6,DSETLLSKEWKQ,0.651 ± 0.11
7,DSFLLSSKICWT,0.745 ± 0.0069
8,DSFSEFDSSPVI,0.727 ± 0.03
9,DSLTNAELVFAC,0.607 ± 0.0068
10,DSMGKVLLTCAN,0.581 ± 0.0094
11,DSPLAGALTEVD,0.715 ± 0.04
12,DSPPRATFSAPR,0.69 ± 0.036
13,DSPTGLKFTQSL,0.634 ± 0.1
14,DSRPLASAVRLS,0.681 ± 0.017
15,DSSFLPHLRLAP,0.689 ± 0.053
16,DSSRANRCISDR,0.654 ± 0.046
17,DTCWHELILAFS,0.592 ± 0.087
18,DTEYVFLYSSQE,0.7029 ± 0.0051
19,DTFVFSWGVGWG,0.76 ± 0.041
20,DTGLGSVVFVVF,0.688 ± 0.036
21,DTLFNRFLHTSI,0.69 ± 0.046
22,DVAPPFLSFFVV,0.62 ± 0.011
23,DVFVFHVLKKYP,0.654 ± 0.025
24,DVLDCTLVEQGA,0.68 ± 0.035
25,DVRPVWGMAGSE,0.742 ± 0.12

row,Sequence,protein stability index
1,DVVFVARGRAND,0.7002 ± 0.0037
2,DWGRRGGALAVI,0.641 ± 0.012
3,DWLAFSYYFSVV,0.599 ± 0.041
4,EAEKTERCVIKG,0.645 ± 0.027
5,EAGGRWEVSCQA,0.6133 ± 0.0017
6,EAKKKRIDKKYE,0.776 ± 0.068
7,EALLWWGAWGVV,0.769 ± 0.02
8,EARFLWLTFLFG,0.546 ± 0.068
9,EARGPGPVGGGT,0.702 ± 0.085
10,EAVVVLVSRFGL,0.695 ± 0.044
11,ECFRWQRRLHYD,0.533 ± 0.024
12,ECSGGGCGQRVG,0.733 ± 0.056
13,EDACARFVRLFL,0.678 ± 0.051
14,EDCICPLNWFTA,0.711 ± 0.013
15,EDIIRPWSMFQE,0.718 ± 0.043
16,EDKKKKTKANDT,0.669 ± 0.028
17,EDLFELPNSNFS,0.73653 ± 0.00022
18,EEKQLNKIKRKI,0.662 ± 0.059
19,EEKRPWRRELLS,0.562 ± 0.025
20,EEMTVKKERKRI,0.641 ± 0.051
21,EENLLYLLYVEC,0.544 ± 0.016
22,EERELGVVWGEV,0.702 ± 0.024
23,EERENKKKLDQT,0.659 ± 0.029
24,EETGWGVVWVVR,0.703 ± 0.037
25,EFFSFPLTPYAL,0.818 ± 0.0035

row,Sequence,protein stability index
1,EFKGRHEETTKS,0.72 ± 0.08
2,EFPSGCSSVIVA,0.655 ± 0.049
3,EFVGKDRWVGGL,0.699 ± 0.053
4,EFVGSCPLCNTF,0.622 ± 0.015
5,EGAGGVEGAAWG,0.7 ± 0.018
6,EGASLRWARLRI,0.679 ± 0.037
7,EGDGVGCWWELW,0.683 ± 0.033
8,EGDRWAGEVVRG,0.705 ± 0.011
9,EGEVAGRWCGRG,0.69 ± 0.013
10,EGGIKGKKVRTW,0.66 ± 0.0087
11,EGGKRGGTPITK,0.654 ± 0.025
12,EGGRRHSVGEQE,0.679 ± 0.01
13,EGGWRYNRNGPN,0.687 ± 0.025
14,EGHSPVQNVIEQ,0.698 ± 0.013
15,EGHTRLPSPSPS,0.677 ± 0.009
16,EGIYLTVGTVDQ,0.707 ± 0.049
17,EGRGKGKKKKTH,0.7 ± 0.036
18,EGRMEAGVEGNS,0.657 ± 0.053
19,EGRPEERETTGH,0.587 ± 0.057
20,EGTASGSSVRLE,0.693 ± 0.049
21,EGYEATYLGVFV,0.706 ± 0.031
22,EGYTPETPCYQK,0.688 ± 0.029
23,EHGEFLEGARGV,0.645 ± 0.0075
24,EHKRQRPVTRLP,0.672 ± 0.016
25,EIGSWKTISILV,0.487 ± 0.024

row,Sequence,protein stability index
1,EIKEEKEHRNQE,0.696 ± 0.052
2,EINSIEQESGTT,0.677 ± 0.019
3,EIRGGDMGEWRE,0.715 ± 0.027
4,EISPQGAKWQEG,0.655 ± 0.048
5,EKCDYVIPVGLL,0.702 ± 0.035
6,EKCHVTVVNEMR,0.643 ± 0.074
7,EKEWKRGTRKLD,0.702 ± 0.085
8,EKIRSNIIKLEE,0.64 ± 0.097
9,EKKEINKIKNQN,0.662 ± 0.028
10,EKKEVSLVKKGR,0.695 ± 0.039
11,EKKHNKKEVIKK,0.699 ± 0.009
12,EKKKKTIRKRMT,0.6691 ± 0.0018
13,EKKKQKDKKKKN,0.705 ± 0.0078
14,EKKRRKKGEKRR,0.712 ± 0.17
15,EKLEGRKIIKKK,0.6927 ± 0.006
16,EKNEREEAESGG,0.714 ± 0.038
17,EKNKKDKNIIIG,0.681 ± 0.04
18,EKNKKKIERSTM,0.684 ± 0.012
19,EKRRRRRQEAER,0.608 ± 0.03
20,EKSPDYVFRWFR,0.745 ± 0.044
21,EKTNQPFHTLHA,0.673 ± 0.011
